B1: 14C10 (antibody, V domains shown)
VH: QVTLKESGPGILQPSQTLSLTCSFSGFSLSTSAMGIGWIRQPSGKGLEWLAHIWWDDDKRYNPALKSRLTISKDTSRNQVFLKIASVDTADTATYFCARIDGIYDGSFYAMDYWGQGTSVTVSS
VL: DIVLTQSPASLAVSLGQRATISCRASESVDSYGNSFMHWYQQKPGQPPKLLIYRASNLESGIPARFSGSGSRTDFTLTINPVEADDVANYYCQQSNEDYTFGGGTKLEIK
notes: murine hybridoma-derived anti-KLB antibody; also called KLBmAb3
B2: 6C1 (antibody, V domains shown)
VH: QVQLQQSGDELMKPGASVKISCKVTGNTFSSYWIEWVKQRPGHGLEWIGEILPGSDSTKYVEKFKVKATFTADTSSNTAYMQLSSLTSEDSAVYYCARGGYHYPGWLVYWGQGTLVTVSA
VL: DIVMTQSQKFMSTSVGDRVSVTCKASQNVDSYVAWYQQKAGQSPKPLIYSASYRFSGVPDRFTGSGSGTEFTLTISNVQSEDLAEYFCQQYNISPYTFGGGTKLEIK
notes: murine hybridoma-derived anti-KLB antibody; also called KLBmAb4
B3: 11D4 (antibody, V domains shown)
VH: QVQVKESGPGLVAPSQSLSITCTVSGFSLTNYGVSWIRQPPGKGLEWLGVIWGDGSINYHSALISRLTITKDNSKSQVFLKLNSLEADDTATYYCAKTHDWFDYWGQGTLVTVSA
VL: DIQMTQTPSSLSASLGDRVTINCRASQDISNYFNWYQQKPNGTIKLLIYYTSRLQSGVPSRFSGSGSGTDYSLTISNLEQEDKATYFCHQVRTLPWTFGGGTKLEIK
notes: murine hybridoma-derived anti-KLB antibody; also called KLBmAb5

Tests used:
rat KLB (+N-ter FLAG) = target: T1, rat KLB (+N-ter FLAG) (rat, UniProt Q99N32 53-989 (mouse entry)); assay: FACS on transfected HEK293T cells
T1 construct: expressed from KLB cDNA on HEK293T cells and read by FACS
T1 chain: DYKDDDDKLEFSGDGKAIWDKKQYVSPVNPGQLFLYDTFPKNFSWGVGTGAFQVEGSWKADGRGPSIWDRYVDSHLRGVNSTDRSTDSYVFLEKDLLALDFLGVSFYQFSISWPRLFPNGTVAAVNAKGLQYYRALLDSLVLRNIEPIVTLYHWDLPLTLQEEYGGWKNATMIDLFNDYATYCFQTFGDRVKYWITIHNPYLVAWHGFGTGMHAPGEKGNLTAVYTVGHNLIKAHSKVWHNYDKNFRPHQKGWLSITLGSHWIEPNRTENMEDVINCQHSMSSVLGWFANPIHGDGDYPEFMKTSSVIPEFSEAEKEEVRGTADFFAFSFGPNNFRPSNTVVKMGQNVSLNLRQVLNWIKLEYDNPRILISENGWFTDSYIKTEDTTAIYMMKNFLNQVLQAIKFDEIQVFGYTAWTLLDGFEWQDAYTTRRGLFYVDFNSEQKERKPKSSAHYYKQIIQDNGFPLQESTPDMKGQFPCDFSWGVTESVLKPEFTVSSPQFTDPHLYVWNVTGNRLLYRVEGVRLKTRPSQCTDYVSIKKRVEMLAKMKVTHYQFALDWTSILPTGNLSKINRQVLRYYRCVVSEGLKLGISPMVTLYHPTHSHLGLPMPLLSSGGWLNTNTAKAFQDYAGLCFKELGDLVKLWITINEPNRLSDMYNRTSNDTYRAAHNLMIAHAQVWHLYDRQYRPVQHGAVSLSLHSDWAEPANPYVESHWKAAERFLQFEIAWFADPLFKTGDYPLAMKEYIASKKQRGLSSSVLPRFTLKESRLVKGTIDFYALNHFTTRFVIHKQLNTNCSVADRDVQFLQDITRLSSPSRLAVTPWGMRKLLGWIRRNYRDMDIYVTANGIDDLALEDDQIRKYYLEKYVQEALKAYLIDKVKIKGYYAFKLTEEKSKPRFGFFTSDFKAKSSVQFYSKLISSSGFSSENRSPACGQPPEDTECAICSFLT
Procedure: (§1) Species cross reactivity of the disclosed anti-KLB antibodies were analyzed by FACS analysis using KLB cDNA from mouse, rat, rabbit, cynomolgus monkey and rhesus monkey cloned into pRK mammalian expression vectors transiently transfected into HEK293T cells. The KLB extracellular domain polypeptide sequences that were expressed are as follows: […]

[1] = target: T2, rhesus monkey KLB (+N-ter FLAG) (rhesus monkey, UniProt Q86Z14 53-992 (human entry)); assay: FACS on transfected HEK293T cells
T2 construct: expressed from KLB cDNA on HEK293T cells and read by FACS
T2 chain: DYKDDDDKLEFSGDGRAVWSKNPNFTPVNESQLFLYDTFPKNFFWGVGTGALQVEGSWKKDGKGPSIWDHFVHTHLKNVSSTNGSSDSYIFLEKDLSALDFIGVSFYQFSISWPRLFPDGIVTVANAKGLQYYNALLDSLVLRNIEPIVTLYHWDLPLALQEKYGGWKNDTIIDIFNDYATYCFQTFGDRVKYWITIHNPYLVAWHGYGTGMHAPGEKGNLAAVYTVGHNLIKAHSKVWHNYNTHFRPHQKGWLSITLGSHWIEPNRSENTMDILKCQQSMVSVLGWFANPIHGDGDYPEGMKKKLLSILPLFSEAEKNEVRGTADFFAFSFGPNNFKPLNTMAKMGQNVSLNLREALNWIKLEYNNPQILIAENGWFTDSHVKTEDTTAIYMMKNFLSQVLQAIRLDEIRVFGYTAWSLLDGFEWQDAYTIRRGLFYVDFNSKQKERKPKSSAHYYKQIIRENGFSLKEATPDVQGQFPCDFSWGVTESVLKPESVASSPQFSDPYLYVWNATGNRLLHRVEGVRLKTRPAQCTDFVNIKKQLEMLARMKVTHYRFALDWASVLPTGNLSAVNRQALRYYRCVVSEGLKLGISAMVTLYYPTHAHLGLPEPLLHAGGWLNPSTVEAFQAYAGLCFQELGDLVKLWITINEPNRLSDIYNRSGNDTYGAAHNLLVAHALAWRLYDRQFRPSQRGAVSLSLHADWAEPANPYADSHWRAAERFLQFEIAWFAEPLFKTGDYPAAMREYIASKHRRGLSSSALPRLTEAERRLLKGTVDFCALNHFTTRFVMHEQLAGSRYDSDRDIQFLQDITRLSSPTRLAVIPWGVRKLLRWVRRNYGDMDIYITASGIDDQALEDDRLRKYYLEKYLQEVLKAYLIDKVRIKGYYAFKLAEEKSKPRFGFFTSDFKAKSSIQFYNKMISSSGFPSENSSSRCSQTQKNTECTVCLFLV
Procedure: as §1

[2] = target: T3, human KLB expressed on cells (human, UniProt Q86Z14 53-1044); assay: FACS on 293 cells expressing hKLB, antibody at 0.8 µg/ml, median shift
T3 construct: on transfected 293 / HEK293 cells; also called hKLB; beta-Klotho

| Binder | binding result (rat KLB (+N-ter FLAG)) | binding result [1] | binding result [2] |
| --- | --- | --- | --- |
| B1 | no binding | binds | binds |
| B2 | no binding | binds | binds |
| B3 | no binding | binds | binds |
